# Test results from US20120100141A1.
# Target: Mouse GLP-1 receptor (mouse) (UniProt O35659)
# Experiment: cell-based or functional assay
# Sequence of Mouse GLP-1 receptor (mouse) (O35659 22-463): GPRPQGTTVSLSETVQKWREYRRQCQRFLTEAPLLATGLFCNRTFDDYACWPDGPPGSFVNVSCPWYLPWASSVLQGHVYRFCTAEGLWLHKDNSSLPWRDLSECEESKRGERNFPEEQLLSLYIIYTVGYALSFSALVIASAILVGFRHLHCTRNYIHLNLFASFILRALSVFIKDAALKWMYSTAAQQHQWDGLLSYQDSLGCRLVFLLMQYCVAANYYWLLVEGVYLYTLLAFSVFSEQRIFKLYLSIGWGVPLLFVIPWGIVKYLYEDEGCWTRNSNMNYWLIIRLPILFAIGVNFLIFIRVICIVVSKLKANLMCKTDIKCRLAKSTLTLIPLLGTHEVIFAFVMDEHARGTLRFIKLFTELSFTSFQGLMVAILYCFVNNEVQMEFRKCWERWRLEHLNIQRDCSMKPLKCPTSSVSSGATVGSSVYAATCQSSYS
substance,measurement,value
GLP-1 (7-36) (from UniProt P01275 98-127) (peptide),"pEC50, melanophore functional GLP-1R bioassay",11.5
